This note sets out measurements from publication PMC6987202, “Exploring the therapeutic potential of modern and ancestral phenylalanine/tyrosine ammonia-lyases as supplementary treatment of hereditary tyrosinemia” (Scientific Reports, 2020).

For data set [1], the system named is T1, PAML_A1.
T1 construct: N-terminal 6xHis tag, E. coli BL21(DE3); tetramer
Kind of data set: trans-cinnamic acid formation at […] nm, Michaelis-Menten fit. Type of data set: biochemical, synthetic construct. To be noted: 50 mM Tris-HCl, pH 9.2, 37 °C; read-out: L-Phe^a / KM^c.

In data set [2] the test system is T2, MEGA_A3.
T2 construct: N-terminal 6xHis tag, E. coli BL21(DE3); tetramer
The data set is described as above. Type of data set: biochemical, synthetic construct. To be noted: 50 mM Tris-HCl, pH 9.2, 37 °C; read-out: L-Phe^a / KM^c.

In the next data set the test system is T3, PAML_A2.
T3 construct: N-terminal 6xHis tag, E. coli BL21(DE3); tetramer
The description is as above. Type of data set: biochemical, synthetic construct. Conditions: 50 mM Tris-HCl, pH 9.2, 37 °C; read-out: L-Phe^a / KM^c.

For data set [3], the system named is T4, MEGA_A1.
T4 construct: N-terminal 6xHis tag, E. coli BL21(DE3); tetramer
The description is as above. Type of data set: biochemical, synthetic construct. Conditions: 50 mM Tris-HCl, pH 9.2, 37 °C; read-out: L-Phe^a / KM^c.

Data set [4] concerns T2, MEGA_A3. Nature of the data set: p-coumaric acid formation at […] nm, Michaelis-Menten fit. The data set is classed as biochemical, synthetic construct. To be noted: 50 mM Tris-HCl, pH 9.2, 37 °C; read-out: L-Tyr^a / KM^c.
Data set [5] has as its system T1, PAML_A1. The description is as above. The data set is classed as biochemical, synthetic construct. Conditions: 50 mM Tris-HCl, pH 9.2, 37 °C; read-out: L-Tyr^a / KM^c.
Data set [6] deals with T4, MEGA_A1. The description is as above. Type of data set: biochemical, synthetic construct. To be noted: 50 mM Tris-HCl, pH 9.2, 37 °C; read-out: L-Tyr^a / KM^c.
Data set [7] addresses PAL/TAL from Rhodotorula glutinis (RgPAL) (Rhodotorula glutinis). Kind of data set: SEC-MALS; analytical SEC on Superdex200 Increase 10/300 GL in filtered PBS pH 7.4, 50 ul of ca. 1-2 mg/ml enzyme, 0.75 ml/min, miniDAWN MALS detector; self-association (tetramer and larger oligomers).
Data set [8] concerns the target PAL/TAL from Trichosporon cutaneum (TcPAL) (Trichosporon cutaneum). The data set is described as above.
Substrate in data set [9]: N[C@@H](Cc1ccc(O)cc1)C(=O)O
Nature of the data set: purified protein. To be noted: 50 mM Tris-HCl, pH 9.2, 37 °C. The data set is classed as biochemical, Rhodotorula glutinis.

Substrate in data set [10]: N[C@@H](Cc1ccccc1)C(=O)O
Nature of the data set: purified protein. Type of data set: biochemical, Rhodotorula glutinis. Conditions: 50 mM Tris-HCl, pH 9.2, 37 °C.

As to `N[C@@H](Cc1ccccc1)C(=O)O` [L-phenylalanine], the Km was 4480 ± 620 µM in the data set with PAML_A1 [1], 350 ± 30 µM with MEGA_A3 [2], 690 ± 150 µM in the data set on PAML_A2 and 3830 ± 970 µM with MEGA_A1 [3].
In the case of `N[C@@H](Cc1ccc(O)cc1)C(=O)O` [L-tyrosine], the Km in the data set with MEGA_A3 [4] stood at 50 ± 10 µM; in the data set on PAML_A1 [5], 2690 ± 10 µM; with MEGA_A1 [6] it was 400 ± 20 µM.
What is called stoichiometry N is the number of molecules, sites or subunits per partner or assembly. The molecule “PAL/TAL from Rhodotorula glutinis (RgPAL) (enzyme)” came in with a stoichiometry N in data set [7] of 4.
Molecule “PAL/TAL from Trichosporon cutaneum (TcPAL) (enzyme)” registered a stoichiometry N in data set [8] of 4.

B1: RgPAL (Rhodotorula glutinis) (protein)
chain: MAPSVDSIATSVANSLSNGLHAAAAANGGDVHKKTAGAGSLLPTTETTQLDIVERILADAGATDQIKLDGYTLTLGDVVGAARRGRSVKVADSPHIREKIDASVEFLRTQLDNSVYGVTTGFGGSADTRTEDAISLQKALLEHQLCGVLPTSMDGFALGRGLENSLPLEVVRGAMTIRVNSLTRGHSAVRIVVLEALTNFLNHGITPIVPLRGTISASGDLSPLSYIAASITGHPDSKVHVDGKIMSAQEAIALKGLQPVVLGPKEGLGLVNGTAVSASMATLALTDAHVLSLLAQALTALTVEAMVGHAGSFHPFLHDVTRPHPTQIEVARNIRTLLEGSKYAVHHETEVKVKDDEGILRQDRYPLRCSPQWLGPLVSDMIHAHAVLSLEAGQSTTDNPLIDLENKMTHHGGAFMASSVGNTMEKTRLAVALMGKVSFTQLTEMLNAGMNRALPSCLAAEDPSLSYHCKGLDIAAAAYTSELGHLANPVSTHVQPAEMGNQAINSLALISARRTAEANDVLSLLLATHLYCVLQAVDLRAMEFEHTKAFEPMVTELLKQHFGALATAEVEDKVRKSIYKRLQQNNSYDLEQRWHDTFSVATGAVVEALAGQEVSLASLNAWKVACAEKAIALTRSVRDSFWAAPSSSSPALKYLSPRTRVLYSFVREEVGVKARRGDVYLGKQEVTIGTNVSRIYEAIKSGRIAPVLVKMMA
notes: full-length codon-optimized gene, N-terminal 6xHis tag, pET22b(+), E. coli BL21(DE3); homotetramer; MIO cofactor from Ala-Ser-Gly
The term kcat denotes the number of substrate molecules converted per active site and unit of time at saturation. The term kcat/Km denotes the second-order rate constant that governs catalysis at low substrate concentration. As for B1, in “purified protein [9]”, the Km was determined as 280 ± 10 µM, the kcat is 1.71 ± 0.11 s⁻¹ and the kcat/Km is 6300 ± 288 M⁻¹ s⁻¹. Besides, in the data set “purified protein [10]”, the Km was determined as 1350 ± 100 µM, the kcat was 8.95 ± 0.37 s⁻¹ and the kcat/Km was determined as 6660 ± 259 M⁻¹ s⁻¹.
